We go through 24 sequences from the DeepSol protein solubility set.

A short description of the series: soluble on expression in E. coli; label from the status in PepcDB or PDB records.
Regarding “MGSDKIHHHHHHMSNNIFTVYGEVPELVEKKTKEIVNDYLGQKIDDFNYVKYNLYESDLTPIIEETLTMPFFSNKKAIVVKNSYVFTGEKFSKDLNHNSDELIKFLEKYDGENLIIFEVYQPKLDERKKLTKTLKKNAQLKKIEQMSEKELKHWIKNTLNNNYKDIKQDALELFIELTGVNYNIVSQELEKLILFIGERPIINKDDIDLIINRSLEQNVFLLTEYIQKGNKNKAIQLVNDLIIMKEEPIKLLALITSNYRLYYQCKILSQKGYSGQQIAKTVNAHPYRVKLALNQSRHYKLESLFNIINACAETDYKLKSSYMDKQLILELFILSL”, the “soluble on expression in E. coli” value is given as “not soluble”.

Turning to “MGSDKIHHHHHHMLIFVMKPRSNPVTGGFHSDKFANWNTMPLETLPVISLAGEPDALSRELGESFRTFGFAMVRDHGIDPDLIARAWDLTAQFFALPEAEKRSYYLDGLAGARGYTPFGTEIAKGARLHDLKEFWHVGRDLPAGHPLSASMPPNVWPARPEGFRQTFETLYGEFDKVGARILSRIAVWLGLDENWFDPAIEDGNSVMRLLHYPPVPDAESGAIRAGAHEDINLITLLLGAEEAGLELLSRQGEWIGVSPPEGALVVNIGDMLQRLTNHVLPSTTHRVRNPEGERARFSRYSMPFFLHLRSDFPFVTLPQCISDENPDRYPVSITADDYLQERLREIGLRK”, the “soluble on expression in E. coli” value is reported as “not soluble”. The same measure for “RAGLSKLPDLKDAEAVQKFFLEEIQLGEELLAQGDYEKGVDHLTNAIAVCGQPQQLLQVLQQTLPPPVFQMLLTKLPTISQRIVSAQSLGEDDVE”: “soluble”; for “TIVDLEDNVLVIGFGRFSQIVCQTLLIRGISVSVIDRNIENIRAAAKFGFKVYYGDGIRLDVLRAAGIEKAKCVVLGINDTQRIEHIVSQMKEAYPNLPILTRTYDRKTTVSLIKQDVDFIVRETFESAITLSRATLMKLGID”: “not soluble”.

In the case of “MKIESAVEISKTATDFHTALDASSVIGSDRVDQLKSILNLTKSDTALLESNITQAKQLKITLDAQLQQRKALVDEYKSKLTVLEGSYMRKSAEVQRLQNELQNAQKAHAMKATTAPNEKNQANCSIS”, the “soluble on expression in E. coli” value was “not soluble”.

Regarding “MSALIVSDIDGTLIDSRERIPSAVKESLAAAQRAGVSFVVATGRPARWIHPIIDQLYTPPTLCVCANGAVIYDPACDSITHRRELAPDAMRTVVRVAREALSDLGGCGVGVERAGVSAHDMPGELFMVTPDFVHSWESIEHSTVELDRVLARSAVKLLLRNDALTSEQMHRLVAPVVPADVAHVTYSMPDGLLEVMQPGVNKSSALDVVAQDLGVDPADAIAFGDMLNDLEMIRWAGTGVAMGNACDQLQRAADVVAPTNDEAGIAVVLREWLQG”, the “soluble on expression in E. coli” value is “not soluble”. With “MGSDKIHHHHHHMQGAQSTVDTQSESLNADRSASVDGHPIIVGAFINMYQQLNKDNLFLLRQVYRDDICFRDPMHHVEGIEALTDYFANMYQNVTHIEFDIKEVVISADKQQAALYWTMSYSHPKLSKGQLINVEGMSQLKFSDKIFSHRDYFDLGQMLYEQVPFLGGLIGLLKNRVTK” the entry was “not soluble”; with “MGSDKIHHHHHHMEHLLHYVWKHKLFPLKILQTTKGLLVEIIDSGLQNPDAGPDFFNAKLKIDGTLWVGNIEIHTHSSDWYRHGHDHDKTYDSVILHVVAEADAEVTRSNGEQIPQLLLTCPENVQTHYHELCIADQYPACYSIIGSLSKLTIHSWLTALQTERLEQKARQIADRLERCDRHWEDAFFITLARNFGFGLNGDAFETWAGLLPFRAIDKHRNDLFQIEAFFFGQAGLLEEAFLKKEQEDEYSLRLRKEFRYLQRKFELNQVMDAGLWRFLRLRPENFPHIRLAQLAYLYQKVDKLFSQMMEAETLPEVRQLLSTHASAYWDNHYIFGRPSPQREKSMGEKSQDLIVINTVVPFLYAYGLHRTDERMCDRAGRFLEELKAENNHIIRSWGDAGLPVGSAADSQALIQLRKEYCDKRKCLFCRFGYEYLRKK”, “not soluble”; with “MEFFGETWRRELAAEFEKPYFKQLMSFVADERSRHTVYPPADQVYSWTEMCDIQDVKVVILGQDPYHGPNQAHGLCFSVQKPVPPPPSLVNIYKELCTDIDGFKHPGHGDLSGWAKQGVLLLNAVLTVRAHQANSHKDRGWETFTDAVIKWLSVNREGVVFLLWGSYAHKKGATIDRKRHHVLQAVHPSPLSAHRGFLGCKHFSKANGLLKLSGTEPINWRAL”, “soluble”. The same measure for “SDTGVIEGGLNVTLTIRLLMHGKEVGSIIGKKGESVKKMREESGARINISEGNCPERIITLAGPTNAIFKAFAMIIDKLEEDISSSMTNSTAASRPPVTLRLVVPASQCGSLIGKGGCKIKEIRESTGAQVQVAGDMLPNSTERAITIAGIPQSIIECVKQICVVMLETLSQSPPKGVTIPYRPKPSSSPVIFAGGQDRYSTGSDSASFPHTTPSMCLNPDLEGPPLEAYTIQGQYAIPQPDLTKLHQLAMQQSHFPMTHGNTGFSGIESSSPEVKGYWAGLDASAQTTSHELTIPNDLIGCIIGRQGAKINEIRQMSGAQIKIANPVEGSTDRQVTITGSAASISLAQYLINVRLSSETGGMGSS”: “soluble”; for “MPKPSVGINGFGRIGRLVLRAAVEKDSVNVVAVNDPFISIDYMVYLFQYDSTHGRFKGTVAHEGDYLLVAKEGKSQHKIKVYNSRDPAEIQWGASGADYVVESTGVFTTIEKANAHLKGGAKKVIISAPSADAPMFVVGVNHEKYDHANDHIISNASCTTNCLAPLAKVINDNFGIIEGLMTTVHAVTATQKTVDGPSGKLWRDGRGAGQNIIPASTGAAKAVGKVIPELNGKLTGMAFRVPTPDVSVVDLTARLEKPASLDDIKKVIKAAADGPMKGILAYTEDQVVSTDFVSDTNSSIFDAGASISLNPHFVKLVSWYDNEFGYSNRVVDLISYIATKA”: “not soluble”. The same measure for “MKRYSTKHFKRILIANNVNIDIDLKTGIVAKNMAKKEKIEQVISMGGIMWEGLNSSLIKVDEALLKQQI”: “soluble”; for “MLNNDVLRSLRYLLDLPDAHLAELAARFGEQVEADLLEAYLKKEDEDGFQACPDRYLARCLDGLIIQRRGRDESRPLPPLELPLSNNMILKKLRVAFELKEEDLHAILDSVDFPVSKPELSALFRKPGHSNYRTCGDQLLRNFLKGLTLRVRG”: “not soluble”; for “MSAKTKFKSPAFEPIHSAASGLFSVDAIPQETMRSFDTACLSSIKDLQPLEIKALREKLNVSQPVFARYLNTSVSTVQKWESGAKRPSGMSLKLLNVVQKHGLKVLV”: “not soluble”.

For “MTTSIWKKLVTAVRGGASEVGESIADANAIRILDQEIRDADNALVKARDGLITIKAKHKLSAQRLEEHATSIANWEGRAMQALNKGEEALAVECASKIAEIEALRDQEQELADQFGKQVSLLQEQVIKAESRIKSLKQQVEMAKARETVQRARVATATATGGASGSVETAVGSLARLKQRQDEQDAKLEAAEELASQSSGSDLERRLQDAGIGAKSGGAQDVLARLKAKNQTPAQLEHHHHHH”, the “soluble on expression in E. coli” value is “not soluble”.

For “NWLTADGAAGPSGEGGFAAEKDRYHLYVSLACPWAHRTLIMRKLKGLEPFLPVSVVNPLMLENGWTFDDSFPEATGDTLYQHDFLYQLYLHADPHYTGRVTVPVLWDKKQQTIVSNESAEIIRMFNTAFDGLGARAGDYYPPALREQIDELNGWIYDNVNN”, the “soluble on expression in E. coli” value is reported as “not soluble”.

Regarding “MGHHHHHHSHMVKFKVIALAALMGISGMAAQANELPDGPHIVTSGTASVDAVPDIATLAIEVNVAAKDAATAKKQADERVAQYISFLELNQIAKKDISSANLRTQPDYDYQDGKSILKGYRAVRTVEVTLRQLDKLNSLLDGALKAGLNEIRSVSLGVAQPDAYKDKARKAAIDNAIHQAQELANGFHRKLGPVYSVRYHVSNYQPSPMVRMMKADAAPVSAQETYEQAAIQFDDQVDVVFQLEPVDQQPAKTPAAQ”, the “soluble on expression in E. coli” value is recorded as “soluble”. With “MNAPIEPHRFILEPFEAHRFANLCGQFDEHLRLIEQRLAIEIRNRGNQFELIGEPRTTSAAEQLLRRLYRETKATDLSPETVHLYLQESAVENIDNPAVNEVSVSLRTRKGNIRPRGLNQQRYVKEILANDINFGIGPAGTGKTYLAVACAVDALEREQVRRILLVRPAVEAGEKLGFLPGDLAQKIDPYLRPLYDALYEMLGFEHVAKLIERQVIEIAPLAYMRGRTLNNSFIILDESQNTTLEQMKMFLTRIGFGSTAVITGDITQVDLPRGTKSGLAHVIEVLKDVPGISFTHFQPKDVVRHPLVQRIVEAYDRFEARQPKPEASGKDA”, the “soluble on expression in E. coli” value was “not soluble”. Consider “MGSDKIHHHHHHMNKQTEHDTREHLLATGEQLCMQRGFTGMGLSELLKTAQVPKGSFYHYFRSKEAFGVAMLERHYACYHQRLTAHFTSGPGNHRDRLLAWYQETLKQFCQQGAISGCLTVKLSAEVCDLSEDMRSTMDKGAQEIMALLARALEDGRNSHCLHFTGQPLPQAQVLYALWLGANLQAKISRSAAPLENALAHVKTIIATPEQ”, for which the “soluble on expression in E. coli” value is listed as “not soluble”. Take “ERSPFPELLPFGEVSVRDSMLYLFVRPDMAGKEVFIPVNGEFLEEVSNLTNASPLNMDIRKTGVRIRMPASMPESFLVLALAFDRNDFVLAGRPQGYPLHMANSSRIYGHSCWDYYTGFKSITGMKWQAVSAPRAIIYTDMEAGKTLRLSVGREEREITLEGGKSEEVSISHDGLSWGKPYVRQVGGVFGMIPDNILRGDSIPLPLTKGWEEMPVGQVEKKPWGEISSCLLVQDIVSDREQTVACHLTFGNGIYVTLNGKQITAELIRETGLAHELTVCLPLQKGKNRLAVKFMNRFGEELIRGVSWPKSYTRYLLPIEGFSLEKVGKKGIPIELRPASVRYQGASASIPNIALL”: the “soluble on expression in E. coli” value was “not soluble”. As for “MAHHHHHHMERCLLLSAWPTLHEREVKEASEFVRSSSVSRRDSMALSLNHAGAFPSASHSGTHRGSFATMLATGSRAASPHPHDPCATPPPGIRCLDLPEHYHARDTRKNKSAVNDYDEDEDDGAYRSGSCSRCLSRASSFSLGAGGMTPLAWKMSSSMNGESPSCRATESPCSAFAQEHLVATAVMERRVNRMAGGISFQGMTPMDALLAGRLAPPDRREEQQELDESGDARGVSPPFRERSMAPAELVAERTGRQQPR”, the “soluble on expression in E. coli” value is “not soluble”. The same measure for “MGHHHHHHSHMWQAISRLLSEQLGEGEIELRNELPGGEVHAAWHLRYAGHDFFVKCDERELLPGFTAEADQLELLSRSKTVTVPKVWAVGADRDYSFLVMDYLPPRPLDAHSAFILGQQIARLHQWSDQPQFGLDFDNALSTTPQPNTWQRRWSTFFAEQRIGWQLELAAEKGIAFGNIDAIVEHIQQRLASHQPQPSLLHGDLWSGNCALGPDGPYIFDPACYWGDRECDLAMLPLHTEQPPQIYDGYQSVSPLPADFLERQPVYQLYTLLNRARLFGGQHLVIAQQSLDRLLAA”: “soluble”; for “MNSSESSSNSEVSSSKTRTVKHAMGTSDNIPANPKRIVVLTNEGTEALLALGIKPVGAVKSWKGDPWYDYLKDDMKGVKNVGLETEPNVEAIAELKPDLIIGNKVRQEKIYDQLNAIAPTVFAESLAGNWKDNLTLYANAVNKADKGKEVIADFDKRVSDLKNKLGDQTNKTVSVVRFLSGESRIYYTDSFPGIILDQLGFKRPEKQVELFKKQKDQFTFSTDSKESIPDMDADVLFYFTYKADNAKENEKWANQWTSSSLWKNLKAVKSGNAHEVDDVVWTTAGGIKAANYLLDDIETYFLKTKLEHHHHHH”: “not soluble”. With “MTYTLAILGCGVMGQALLSAIYNAPKAADETAAAFYPSKIITCNHDEPSAQQVTDLVETFDESPNGIKVESTYGHNVSAVEEASVVLLGTKPFLAEEVLNGVKSVIGGKLLISLAAGWTIDQLSQYTSTVCRVMTNTPAKYGYGCAVVSYSADVSKEQKPLVNELISQVGKYVELPEKNMDAATALVGSGPAFVLLMLESLMESGLKLGIPLQESKECAMKVLEGTVKMVEKSGAHPSVLKHQVCTPGGTTIAGLCVMEEKGVKSGIINGVEEAARVASQLGQKKK” the entry was “soluble”.
